Where two headings read alike, the source gives them in different places.
Assays:
pxAM-FLS-SSAS-TB-His [1] = molecular target: T1, pxAM-FLS-SSAS-TB-His (SARS-CoV-2, UniProt P0DTC2 15-1213)
[2] = molecular target: Brazil, Gamma, pxENB9-FLS-P.1 (SARS-CoV-2, UniProt P0DTC2 15-1213)
[3] = molecular target: India, Delta, pxENB9-FLS-B.1.617.2 (SARS-CoV-2, UniProt P0DTC2 15-1213)
[4] = molecular target: US/CA, Epsilon, pxENB9-FLS-B.1.427 (SARS-CoV-2, UniProt P0DTC2 15-1213)
pxAM-FLS-SSAS-TB-His [5] = molecular target: T1, pxAM-FLS-SSAS-TB-His; remark: listed apart in the source
pxAM-FLS-SSAS-TB-His [6] = molecular target: T1, pxAM-FLS-SSAS-TB-His; remark: listed apart in the source

B1: pxEBN4-ACE2-AAA-His (receptor)
chain: QSTIEEQAKTFLDKFNHEAEDLFYQSSLASWNYNTNITEENVQNMNNAGDKWSAFLKEQSTLAQMYPLQEIQNLTVKLQLQALQQNGSSVLSEDKSKRLNTILNTMSTIYSTGKVCNPDAPAECLLLEPGLNEIMANSLDYNERLWAWESWRSEVGKALRPLYEEYVVLKNEMARANHYEDYGDYWRGDYEVNGVDGYDYSRGQLIEDVEHTFEEIKPLYEHLHAYVRAKLMNAYPSYISPIGCLPAHLLGDMWGRFWTNLYSLTVPFGQKPNIDVTDAMVDQAWDAQRIFKEAEKFFVSVGLPNMTQGFWENSMLTDPGNVQKAVCHPTAWDLGKGDFRILMCTKVTMDDFLTAHHEMGHIQYDMAYAAQPFLLRNGANEGFHEAVGEIMSLSAATPKHLKSIGLLSPDFQEDNETEINFLLKQALTIVGTLPFTYMLEKWRWMVFKGEIPKDQWMKKWWEMKREIVGVVEPVPHDETYCDPASLFHVSNDYSFIRYYTRTLYQFQFQEALCQAAKHEGPLHKCDISNSTEAGQKLFNMLRLGKSEPWTLALENVVGAKNMNVRPLLNYFEPLFTWLKDQNKNSFVGWSTDWSPYADGGGSHHHHHHHH
Kd (pxAM-FLS-SSAS-TB-His [1]): 130 pM | Kd [2]: 1.59 pM | Kd [3]: 2550 pM | Kd [4]: 1300 pM | Kd (pxAM-FLS-SSAS-TB-His [5]): 5620 pM | Kd (pxAM-FLS-SSAS-TB-His [6]): 524 pM

Source: patent US20240400618A1 (GRIFOLS DIAGNOSTIC SOLUTIONS, published 2024)
